Results taken from article PMC7971329 (Oncoimmunology, 2021).

Molecular target: human interleukin-2 (human, UniProt P60568)
Assay: SEC

Chain of human interleukin-2 (P60568 21-153): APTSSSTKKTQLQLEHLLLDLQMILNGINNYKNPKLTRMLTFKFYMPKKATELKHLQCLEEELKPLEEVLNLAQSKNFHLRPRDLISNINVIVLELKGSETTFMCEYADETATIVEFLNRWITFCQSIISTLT

binding result: binds
B1: TCB2-Fab (Fab, V domains shown)
VH: EVQLQQSGAELARPGASVKLSCKASGYTFTTYWIQWVKQRPGQGLEWIGAIYPGDGDTRYIQNFKGKATLTADKSSSTAYMQLSSLASEDSAVYYCARSLATRGFYAMDYWGQGTSVTVSS
VL: DIVMTQSPASLSMAIGEKVTIRCITSTDIDDDMNWYQQKPGEPPKLLISEGNTLRPGVPSRFSSSGYGTDFVFTIENMLSEDVADYYCLQSDNLPYTFGGGTKLEIK
